The target of experiment [1] is T1, GluD1 (glutamate delta-1 receptor) (Rattus norvegicus, UniProt Q62640).
T1 construct: gene Grid1; rat pCAGGS GluD1 plasmid expressed in COS-7 cells; with Cbln1 (recombinant, HA-tagged)
As to the kind of experiment: cell-binding assay: inhibition of rCbln1 binding to GluD1-expressing COS-7 cells; effect lost in R526K mutant; immunoblot confirmation in HEK293T. In kind it is cell-based.

In the next experiment the target is GluD1 (UniProt Q9ULK0). The conditions noted are these: cited from earlier work.
Sequence of GluD1 (Q9ULK0 21-436): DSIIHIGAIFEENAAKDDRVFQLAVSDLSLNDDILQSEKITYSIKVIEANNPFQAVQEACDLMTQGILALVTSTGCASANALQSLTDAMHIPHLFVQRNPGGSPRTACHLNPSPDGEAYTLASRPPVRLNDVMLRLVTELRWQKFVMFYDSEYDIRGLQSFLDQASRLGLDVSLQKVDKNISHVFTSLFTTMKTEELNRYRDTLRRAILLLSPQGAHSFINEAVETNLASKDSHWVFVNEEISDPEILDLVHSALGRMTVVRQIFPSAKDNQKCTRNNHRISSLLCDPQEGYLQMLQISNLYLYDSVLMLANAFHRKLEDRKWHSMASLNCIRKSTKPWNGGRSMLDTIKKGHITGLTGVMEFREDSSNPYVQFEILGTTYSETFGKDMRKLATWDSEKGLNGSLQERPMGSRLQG
A further experiment addresses Neurexin (UniProt P58400). The conditions noted are these: cited from earlier work.

Sequence of Cbln1 (P23435 22-193): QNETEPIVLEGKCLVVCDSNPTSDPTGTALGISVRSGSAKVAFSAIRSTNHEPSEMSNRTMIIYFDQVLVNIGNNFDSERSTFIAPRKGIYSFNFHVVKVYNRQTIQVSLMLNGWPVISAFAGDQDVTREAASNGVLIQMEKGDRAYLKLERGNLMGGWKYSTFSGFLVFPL
T1 sequence (Q62640 21-1009): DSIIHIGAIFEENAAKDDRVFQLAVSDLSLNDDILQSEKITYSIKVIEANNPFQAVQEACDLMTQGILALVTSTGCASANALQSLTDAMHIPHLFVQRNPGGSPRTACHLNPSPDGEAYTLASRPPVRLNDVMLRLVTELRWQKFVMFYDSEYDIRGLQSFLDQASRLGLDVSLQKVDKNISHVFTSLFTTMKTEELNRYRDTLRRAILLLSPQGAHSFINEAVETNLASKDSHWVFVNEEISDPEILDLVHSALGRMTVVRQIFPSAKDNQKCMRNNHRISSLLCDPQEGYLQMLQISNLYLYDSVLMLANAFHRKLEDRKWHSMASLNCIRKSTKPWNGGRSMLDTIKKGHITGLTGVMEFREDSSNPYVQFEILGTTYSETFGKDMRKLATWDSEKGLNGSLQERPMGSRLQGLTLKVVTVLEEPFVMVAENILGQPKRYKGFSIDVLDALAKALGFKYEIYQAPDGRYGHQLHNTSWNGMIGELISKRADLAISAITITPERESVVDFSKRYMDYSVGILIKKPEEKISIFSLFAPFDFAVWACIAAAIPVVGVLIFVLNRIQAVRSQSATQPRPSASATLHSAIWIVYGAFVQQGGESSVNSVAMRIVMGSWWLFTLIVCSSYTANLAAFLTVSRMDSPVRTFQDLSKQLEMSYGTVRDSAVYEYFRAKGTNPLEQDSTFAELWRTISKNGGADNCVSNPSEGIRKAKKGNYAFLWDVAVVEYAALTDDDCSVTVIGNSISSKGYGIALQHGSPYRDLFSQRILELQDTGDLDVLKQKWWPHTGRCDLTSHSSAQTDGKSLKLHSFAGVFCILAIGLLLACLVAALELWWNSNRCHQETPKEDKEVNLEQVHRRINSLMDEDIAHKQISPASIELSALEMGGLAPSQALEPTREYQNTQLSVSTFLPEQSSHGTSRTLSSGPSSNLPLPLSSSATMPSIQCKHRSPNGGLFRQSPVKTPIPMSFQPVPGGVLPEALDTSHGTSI
T1 sequence (P63182 22-193 partner): as the sequence (P23435 22-193) above
Sequence of Neurexin (P58400 51-396): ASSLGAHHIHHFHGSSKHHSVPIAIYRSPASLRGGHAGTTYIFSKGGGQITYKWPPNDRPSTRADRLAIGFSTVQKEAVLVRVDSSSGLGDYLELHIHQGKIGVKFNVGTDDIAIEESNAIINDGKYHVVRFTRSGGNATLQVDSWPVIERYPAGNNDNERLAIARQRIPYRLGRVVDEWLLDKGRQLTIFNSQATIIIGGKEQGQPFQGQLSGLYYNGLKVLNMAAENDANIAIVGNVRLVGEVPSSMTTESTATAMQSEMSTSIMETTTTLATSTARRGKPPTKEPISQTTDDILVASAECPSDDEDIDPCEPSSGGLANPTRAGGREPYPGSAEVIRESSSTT

For `N[C@H](CO)C(=O)O` [D-serine], in experiment [1], the IC50 is 310000 ± 160000 nM.
On to Cbln1 (from UniProt P23435), for which the results for the Kd with GluD1 and in the experiment with Neurexin were 100 nM and 47 nM, respectively.

A word on the IC50: it is the concentration that gives 50% inhibition. Lower therefore signals greater potency. By Kd is commonly meant a measure of binding affinity in units of concentration.
